# Assay results published in US20040147432A1 (MERCK, published 2004).
# Like-named read-outs stand apart in the source and are kept apart here. Bridges are numbered along the chain shown (N, C = ends). Where no end group is shown, it is not given here. [ ]: non-standard residue; d: D form. Arg(NO2) = N=C(NCCC[C@H](N)C(=O)O)N[N+](=O)[O-]
# How the values were obtained:
# [1] = molecular target: T1, human melanin concentrating hormone type 2 receptor (MCH-2R) (human, UniProt Q969V1 1-340); experiment: cell-based or functional assay
# human MCH-1R [2] = molecular target: T2, human MCH-1R (human, UniProt Q99705 1-353); experiment: cell-based or functional assay
# [3] = molecular target: T1, human melanin concentrating hormone …; experiment: SPA competition with [125I]-human MCH (Phe13, Tyr19) on receptor membranes
# Experimental: (§1) For the SPA-based assay, WGA-PVT beads (NEN Life Sciences Products) were resuspended in Dulbecco's PBS with calcium and magnesium (500 mg beads in 4 ml PBS). […] The suspension was mixed gently for 20 minutes, 12.3 ml of assay buffer and protease inhibitors were added (final concentration given): 2 μg/ml leupeptin, 10 μM phosphoramidon, 40 μg/ml bacitracin, 5 μg/ml aprotinin, 0.1 mM Pefabloc.
# (§2) Coated beads were kept on ice until use. […] Binding reactions were allowed to proceed at room temperature for 3 hours. Quantitation was performed by scintillation counting (TopCount device).
# [4] = molecular target: T1, human melanin concentrating hormone …; experiment: as above; remark: listed apart in the source
# Experimental: as §1, §2
# [5] = molecular target: T1, human melanin concentrating hormone …; experiment: cell-based or functional assay; remark: listed apart in the source
# human MCH-1R [6] = molecular target: T2, human MCH-1R; experiment: cell-based or functional assay; remark: listed apart in the source
# [7] = molecular target: T1, human melanin concentrating hormone …; experiment: SPA competition with [125I]-human MCH (Phe13, Tyr19) on receptor membranes; remark: listed apart in the source
# Experimental: as §1, §2
# [8] = molecular target: T1, human melanin concentrating hormone …; experiment: cell-based or functional assay; remark: listed apart in the source
# human MCH-1R [9] = molecular target: T2, human MCH-1R; experiment: cell-based or functional assay; remark: listed apart in the source
# human MCH-1R [10] = molecular target: T2, human MCH-1R; experiment: SPA competition with [125I]-human MCH (Phe13, Tyr19) on receptor membranes
# Experimental: as §1, §2
# human MCH-1R [11] = molecular target: T2, human MCH-1R; experiment: as above; remark: listed apart in the source
# Experimental: as §1, §2
# human MCH-1R [12] = molecular target: T2, human MCH-1R; experiment: as above; remark: listed apart in the source
# Experimental: as §1, §2
# human MCH-1R [13] = molecular target: T2, human MCH-1R; experiment: cell-based or functional assay; remark: listed apart in the source
# T1 sequence (Q969V1 whole entry, form in doubt): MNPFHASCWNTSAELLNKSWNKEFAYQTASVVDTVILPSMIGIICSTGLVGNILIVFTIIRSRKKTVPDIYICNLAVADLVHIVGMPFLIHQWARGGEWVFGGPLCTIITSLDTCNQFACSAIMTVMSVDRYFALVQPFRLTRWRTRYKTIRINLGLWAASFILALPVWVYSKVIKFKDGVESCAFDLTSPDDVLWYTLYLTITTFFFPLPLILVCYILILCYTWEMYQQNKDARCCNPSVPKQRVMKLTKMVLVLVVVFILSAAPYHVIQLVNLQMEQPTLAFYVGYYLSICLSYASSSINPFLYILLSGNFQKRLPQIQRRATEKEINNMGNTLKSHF
# T2 sequence (Q99705 whole entry, form in doubt): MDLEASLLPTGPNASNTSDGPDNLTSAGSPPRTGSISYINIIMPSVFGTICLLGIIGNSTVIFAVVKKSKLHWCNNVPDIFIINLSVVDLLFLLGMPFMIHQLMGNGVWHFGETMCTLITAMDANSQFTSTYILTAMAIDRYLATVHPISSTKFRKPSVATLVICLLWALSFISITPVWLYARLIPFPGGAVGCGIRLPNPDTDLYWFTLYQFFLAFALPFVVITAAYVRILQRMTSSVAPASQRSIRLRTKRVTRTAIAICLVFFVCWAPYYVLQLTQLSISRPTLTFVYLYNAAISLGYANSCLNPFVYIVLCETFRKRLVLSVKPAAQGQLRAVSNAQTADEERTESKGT
Activation % at 10 µM (aequorin functional assay) [1],EC50 (aequorin functional assay) [1],Activation % at 10 µM (aequorin functional assay) (human MCH-1R [2]),IC50 [3],Activation % at 10 µM (aequorin functional assay) (human MCH-1R [6]),IC50 [7],EC50 (aequorin functional assay) (human MCH-1R [2]),IC50 (human MCH-1R [10]),also measured,Binder
100%,44.7 nM,100%,0.9 nM,100%,0.5 nM,,,IC50 [4]: 0.5 nM; Activation % at 10 µM (aequorin functional assay) [5]: 100%; EC50 (aequorin functional assay) [5]: 30.7 nM; Activation % at 10 µM (aequorin functional assay) [8]: 100%; EC50 (aequorin functional assay) [8]: 30.7 nM; Activation % at 10 µM (aequorin functional assay) (human MCH-1R [9]): 100%,"DFDMLRCMLGRVYRPCWQV (ligand, disulfide 7-16 (inferred), cyclic 19-amino acid peptide; also called hMCH; mammalian MCH) [human MCH (melanin-concentrating hormone), SEQ. ID. NO. 1]"
81%,186 nM,97%,62 nM,,,28.3 nM,1.4 nM,,"DFDMLRCMLGRVYAPCWQV (disulfide 7-16, also called Ala^14) [SEQ. ID. NO. 52]"
96%,84.2 nM,99%,19 nM,,,34.7 nM,1.9 nM,,"DFDMLRCMLGRVYRACWQV (disulfide 7-16, also called Ala^15) [SEQ. ID. NO. 53]"
97%,80.8 nM,99%,9.5 nM,,,36.1 nM,0.7 nM,,"DFDMLRCMLGRVYRPCWAV (disulfide 7-16, also called Ala^18) [SEQ. ID. NO. 55]"
95%,54.2 nM,100%,5.1 nM,,,6.8 nM,0.1 nM,,"DFDMLRCMLGRVYRPCAQV (disulfide 7-16, also called Ala^17) [SEQ. ID. NO. 54]"
99%,58.9 nM,100%,8.7 nM,,,17.4 nM,0.4 nM,,"DFDMLRCMLGRVYRPCWQA (disulfide 7-16, also called Ala^19) [SEQ. ID. NO. 56]"
92%,1.5 nM,97%,0.07 nM,,,40 nM,0.6 nM,,"DFDMLRCMLGRVFRPCYQV (disulfide 7-16, label prints Tyr^17 while the radioligand is Phe^13, Tyr^19; also called Phe^13, Tyr^17) [SEQ. ID. NO. 57]"
,,,,49%,,,,Activation % at 10 µM (aequorin functional assay) [5]: 103%,XCMLGRVYRPC (not fully specified; (?NH2)-Arg at position 6) [SEQ. ID. NO. 40]
,,,,99%,2 nM,,,IC50 [4]: 2 nM; IC50 (human MCH-1R [11]): 0.5 nM; EC50 (aequorin functional assay) (human MCH-1R [6]): 20 nM; IC50 (human MCH-1R [12]): 1.4 nM; Activation % at 10 µM (aequorin functional assay) (human MCH-1R [9]): 99%; EC50 (aequorin functional assay) (human MCH-1R [9]): 20 nM,"Ac-RCMLGRVYRPC-NH2 (disulfide 2-11 (inferred), positions numbered 6-16 as in hMCH) [truncated form of human MCH, SEQ. ID. NO. 2]"
,,,,,490 nM,,,Activation % at 10 µM (aequorin functional assay) (human MCH-1R [13]): 0.1%; EC50 (aequorin functional assay) (human MCH-1R [13]): > 10000 nM; Activation % at 10 µM (aequorin functional assay) [8]: 34%; EC50 (aequorin functional assay) [8]: 260 nM,"Ac-RCML[dA][Arg(NO2)]VYRPC-NH2 (disulfide 2-11 (inferred), also called D-Ala^10, Arg(NO2)^11) [SEQ. ID. NO. 37]"
